# Laboratory results from article PMC3176292, “Mutations in Protein-Binding Hot-Spots on the Hub Protein Smad3 Differentially Affect Its Protein Interactions and Smad3-Regulated Gene Expression” (PLoS ONE, 2011).
# Residue numbers refer to the chain shown, from its start.
# T1: Flag-SARA, full length (UniProt O95405 1-1425)
# T1 construct: SARA; plasmid pCMV5b-Flag-SARA; also called SARA FL; source: HEK-293, transfected, in lysate
# T1 sequence (looked up): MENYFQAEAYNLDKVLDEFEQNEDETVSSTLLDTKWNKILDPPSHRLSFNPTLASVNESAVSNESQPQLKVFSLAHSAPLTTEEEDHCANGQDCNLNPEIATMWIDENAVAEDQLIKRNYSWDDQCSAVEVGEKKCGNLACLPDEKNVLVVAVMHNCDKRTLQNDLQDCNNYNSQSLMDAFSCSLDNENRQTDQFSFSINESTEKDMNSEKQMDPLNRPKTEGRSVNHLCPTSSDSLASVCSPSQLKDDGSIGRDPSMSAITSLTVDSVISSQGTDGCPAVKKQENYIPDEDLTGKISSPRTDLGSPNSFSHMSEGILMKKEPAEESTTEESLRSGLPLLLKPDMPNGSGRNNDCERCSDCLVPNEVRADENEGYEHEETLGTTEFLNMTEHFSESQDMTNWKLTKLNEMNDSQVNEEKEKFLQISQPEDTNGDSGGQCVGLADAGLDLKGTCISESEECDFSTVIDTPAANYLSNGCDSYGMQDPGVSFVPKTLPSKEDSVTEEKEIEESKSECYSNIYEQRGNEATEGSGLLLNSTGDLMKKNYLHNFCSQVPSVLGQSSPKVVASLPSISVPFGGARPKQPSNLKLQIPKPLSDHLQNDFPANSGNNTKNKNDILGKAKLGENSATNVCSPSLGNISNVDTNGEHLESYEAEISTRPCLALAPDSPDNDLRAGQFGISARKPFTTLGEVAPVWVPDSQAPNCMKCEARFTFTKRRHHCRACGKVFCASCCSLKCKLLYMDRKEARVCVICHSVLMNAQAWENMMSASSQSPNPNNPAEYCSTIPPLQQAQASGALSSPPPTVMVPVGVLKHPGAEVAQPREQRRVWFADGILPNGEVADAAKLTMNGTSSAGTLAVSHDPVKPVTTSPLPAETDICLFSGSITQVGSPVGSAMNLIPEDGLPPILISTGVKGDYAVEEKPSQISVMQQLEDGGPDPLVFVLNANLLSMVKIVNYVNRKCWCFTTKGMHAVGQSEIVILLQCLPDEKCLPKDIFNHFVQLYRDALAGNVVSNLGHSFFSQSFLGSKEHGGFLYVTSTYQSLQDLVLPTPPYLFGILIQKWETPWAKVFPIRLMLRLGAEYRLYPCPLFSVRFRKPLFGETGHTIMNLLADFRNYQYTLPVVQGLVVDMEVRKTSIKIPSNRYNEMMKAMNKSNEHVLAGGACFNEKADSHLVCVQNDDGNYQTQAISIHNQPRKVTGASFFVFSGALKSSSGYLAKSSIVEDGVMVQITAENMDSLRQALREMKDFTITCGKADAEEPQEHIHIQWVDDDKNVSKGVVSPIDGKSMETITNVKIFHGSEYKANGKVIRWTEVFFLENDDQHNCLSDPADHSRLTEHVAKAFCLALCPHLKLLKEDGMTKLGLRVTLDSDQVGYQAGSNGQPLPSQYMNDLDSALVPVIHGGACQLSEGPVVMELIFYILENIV
# T2: SIP1 Smad-binding domain (amino acids 315–487) on the 3xFlag-thioredoxin scaffold (UniProt Q9R0G7 315-487)
# T2 construct: SIP1, amino acids 315–487; amplified from pACT2-SIP1-315-487 (from D. Huylebroeck), which I recall as a mouse clone; cloned into the RsrII site of pCI-3xFLAG-Trx; also called Sip1 315–487; TrxSIP1; source: HEK-293, transfected, in lysate
# T2 sequence (looked up): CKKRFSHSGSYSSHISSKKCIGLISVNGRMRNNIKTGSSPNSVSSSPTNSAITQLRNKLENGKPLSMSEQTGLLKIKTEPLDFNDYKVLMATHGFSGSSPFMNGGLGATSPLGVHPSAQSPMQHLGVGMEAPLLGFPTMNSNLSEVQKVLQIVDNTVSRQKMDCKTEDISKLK
# B1: Renilla luciferase-Smad3 V356R (natural protein, UniProt P84022 1-425, looked up)
# chain: MSSILPFTPPIVKRLLGWKKGEQNGQEEKWCEKAVKSLVKKLKKTGQLDELEKAITTQNVNTKCITIPRSLDGRLQVSHRKGLPHVIYCRLWRWPDLHSHHELRAMELCEFAFNMKKDEVCVNPYHYQRVETPVLPPVLVPRHTEIPAEFPPLDDYSHSIPENTNFPAGIEPQSNIPETPPPGYLSEDGETSDHQMNHSMDAGSPNLSPNPMSPAHNNLDLQPVTYCEPAFWCSISYYELNQRVGETFHASQPSMTVDGFTDPSNSERFCLGLLSNVNRNAAVELTRRHIGRGVRLYYIGGEVFAECLSDSAIFVQSPNCNQRYGWHPATVCKIPPGCNLKIFNNQEFAALLAQSRNQGFEAVYQLTRMCTIRMSFVKGWGAEYRRQTVTSTPCWIELHLNGPLQWLDKVLTQMGSPSIRCSSVS
# notes: Smad3; source: HEK-293, transfected together with constitutively active Alk5, in lysate
# B2: Renilla luciferase-Smad3 Y297A (natural protein, UniProt P84022 1-425, looked up)
# chain: B1 chain with Y297A, R356V
# notes: as for B1
# B3: Renilla luciferase-Smad3 W406A (natural protein, UniProt P84022 1-425, looked up)
# chain: B1 chain with R356V, W406A
# notes: as for B1
# B4: Renilla luciferase-Smad3 Y298A (natural protein, UniProt P84022 1-425, looked up)
# chain: B1 chain with Y298A, R356V
# notes: as for B1
# B5: Renilla luciferase-Smad3 Y226A (natural protein, UniProt P84022 1-425, looked up)
# chain: B1 chain with Y226A, R356V
# notes: as for B1
# B6: Renilla luciferase-Smad3 W326A (natural protein, UniProt P84022 1-425, looked up)
# chain: B1 chain with W326A, R356V
# notes: as for B1
# Biological target: T1, Flag-SARA, full length
# Assay: co-IP; LUMIER: Renilla luciferase-Smad3 and Flag-tagged partner co-expressed with constitutively active Alk5 in HEK-293; Flag protein captured from cleared lysate (TNE: 10 mM Tris-HCl pH 7.8, 150 mM NaCl, 1 mM EDTA, 1% Igepal CA-630) on anti-Flag 96-well plates, 2 h at 4 °C; co-precipitated Renilla luciferase activity, TrxGA background subtracted, percent of wild-type Smad3
# Conditions: partners not purified
row,percent binding relative to wild-type Smad3 [%],Binder
1,16,B1
2,38,B2
3,12,B3
4,150,B4
5,32,B5
6,13,B6

# Biological target: T2, SIP1 Smad-binding domain (amino acids …)
# Assay: as above
# Conditions: partners not purified
row,percent binding relative to wild-type Smad3 [%],Binder
1,7,B1
2,80,B2
3,15,B3
4,33,B4
5,7,B5
6,319,B6
